Data: article PMC4923907

Target: GG-SpaA E269A mutant, residues 35-302 (Lactobacillus rhamnosus GG (ATCC 53103))
Assay: SEC; size-exclusion chromatography of purified E269A protein, Sephacryl S-200 26/60, 20 mM Tris pH 7.5, 150 mM NaCl, 1 mM EDTA; two forms recovered, trimeric (E1) and monomeric (E2)

stoichiometry N: 3
Substance: GG-SpaA E269A mutant, residues 35-302 (domain or fragment)
